# Laboratory results taken from article PMC8979313.
# T1: Pr(brC)2 (UniProt P03069 226-249+=GC, internal_change)
# T1 chain: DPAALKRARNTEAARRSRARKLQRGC
# B1: Random (dsDNA)
# DNA 1: AGCGCACGTCCTGCACGTC
# DNA 2: GACGTGCAGGACGTGCGCT
# Biological target: T1, Pr(brC)2
# Experiment: EMSA
binder,measurement,value
B1,binding result,no binding
